Experiment [1] concerns the target T1, mouse CD25 (mouse, UniProt P01590 22-268).
T1 construct: Expressed on transiently transfected CHO-K1 cells in the Cell-ELISA; Endogenous on CTLL-2 cells and mouse pan T cells in the functional assays; also called mCD25; pCMV3-mCD25 (expression vector)
T1 sequence: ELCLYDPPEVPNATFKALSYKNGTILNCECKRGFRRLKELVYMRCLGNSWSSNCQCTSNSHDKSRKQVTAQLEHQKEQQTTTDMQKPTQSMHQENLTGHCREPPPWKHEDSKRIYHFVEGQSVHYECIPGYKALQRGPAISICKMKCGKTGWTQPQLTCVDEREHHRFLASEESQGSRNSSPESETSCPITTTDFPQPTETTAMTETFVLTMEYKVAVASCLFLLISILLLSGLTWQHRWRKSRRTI
Description: cell-based or functional assay.

For experiment [2], the target named is T2, human CD25 (human, UniProt P01589 22-272).
T2 construct: Expressed on transiently transfected CHO-K1 cells in the Cell-ELISA; Endogenous on human T cells, PBMC, Karpas-299 and EoL-1 in the functional assays; also called hCD25; IL-2 receptor alpha chain
T2 sequence: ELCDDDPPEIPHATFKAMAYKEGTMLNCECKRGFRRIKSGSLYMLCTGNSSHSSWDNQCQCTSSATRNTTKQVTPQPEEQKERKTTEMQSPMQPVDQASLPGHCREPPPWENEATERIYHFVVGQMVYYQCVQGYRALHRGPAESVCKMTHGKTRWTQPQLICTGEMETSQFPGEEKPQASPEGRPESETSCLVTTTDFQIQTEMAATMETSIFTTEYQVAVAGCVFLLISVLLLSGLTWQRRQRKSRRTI
As to the kind of experiment: cell-based or functional assay.

Experiment [3] deals with T1, mouse CD25. Description: Cell-ELISA on transfected CHO-K1 cells, anti-human IgG-HRP, A450. For orientation: ELISA stands for enzyme-linked immunosorbent assay.
Experiment [4] has as its target T3, cynomolgus monkey CD25 (cynomolgus monkey, UniProt Q5MNY4 22-272 (rhesus entry)).
T3 construct: Expressed on transiently transfected CHO-K1 cells; also called cCD25; pCI-cCD25 (expression vector)
T3 chain: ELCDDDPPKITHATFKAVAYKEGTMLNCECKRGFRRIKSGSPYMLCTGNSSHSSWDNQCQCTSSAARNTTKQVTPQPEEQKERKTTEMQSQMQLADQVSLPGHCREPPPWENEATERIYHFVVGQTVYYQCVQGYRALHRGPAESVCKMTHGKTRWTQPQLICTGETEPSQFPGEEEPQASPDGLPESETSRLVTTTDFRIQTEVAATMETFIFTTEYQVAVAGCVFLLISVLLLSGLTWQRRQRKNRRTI
Description: Cell-ELISA on transfected CHO-K1 cells, anti-human IgG-HRP, A450; 20 to 0.001 µg/mL.

Experiment [5] concerns the target T4, CD25 antigen used as analyte in the Biacore measurement (Homo sapiens (Human), UniProt P01589 22-213, limits assumed).
T4 construct: also called the antigen
T4 sequence: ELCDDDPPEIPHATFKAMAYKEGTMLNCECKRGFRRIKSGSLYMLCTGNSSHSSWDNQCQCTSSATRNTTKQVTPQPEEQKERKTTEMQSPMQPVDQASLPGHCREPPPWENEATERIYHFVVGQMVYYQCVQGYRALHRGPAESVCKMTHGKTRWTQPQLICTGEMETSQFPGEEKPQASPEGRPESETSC
Description: SPR, Biacore T200, antibody captured on anti-human IgG (Fc) on CM5, antigen as analyte, 1:1 binding model. (In general: Surface plasmon resonance follows binding to a sensor surface in real time, without labels.)

The target in experiment [6] is T1, mouse CD25. Description: Cell-ELISA on transfected CHO-K1 cells, anti-rat IgG-HRP, A450.
The target in experiment [7] is T3, cynomolgus monkey CD25. Description: Cell-ELISA on transfected CHO-K1 cells, anti-rat IgG-HRP, A450; 0.02 to 10 µg/mL.
The target of experiment [8] is T3, cynomolgus monkey CD25. As to the kind of experiment: Cell-ELISA on transfected CHO-K1 cells, anti-human IgG-HRP, A450; 80 to 0.001 µg/mL.
Experiment [9] has as its target T2, human CD25. Description: Cell-ELISA on transfected CHO-K1 cells, anti-rat IgG-HRP, A450.
For experiment [10], the target named is T3, cynomolgus monkey CD25. The experiment is described as above.
Experiment [11] addresses T2, human CD25. Description: Cell-ELISA on transfected CHO-K1 cells, anti-human IgG-HRP, A450.
The target of experiment [12] is T3, cynomolgus monkey CD25. Described as above.

In the case of PC61_hIgG1LALA (antibody), the amount of pSTAT5 in mouse CTLL-2 cells with IL-2 (AlphaLISA), % of rat IgG2a control group; antibody solution 20 µg/mL with mouse CD25 [1] was 48%.

In the experiment with human CD25 [2], 7G7B6 (antibody) gave an amount of pSTAT5 in human PBMC with IL-2 (AlphaLISA), % of rat IgG2a control group; antibody 20 µg/mL of 103%.

In the experiment with human CD25 [2], basiliximab (antibody) showed an amount of pSTAT5 in human PBMC with IL-2 (AlphaLISA), % of hIgG1 control group of 0.01%; an amount of pSTAT5 in human PBMC with IL-2 (AlphaLISA), % of human IgG1 control group of 1.2%; an amount of pSTAT5 in human PBMC with IL-2 (AlphaLISA), % of rat IgG2a control group; antibody 20 µg/mL of 1%.

In the experiment with mouse CD25 [1], “Purified NA/LE Rat Anti-Mouse CD25 (PC61 antibody)” yielded a cell survival rate of mouse pan T cells with Fab-ZAP rat (saporin), % of control antibody; 60 ng/mL of 59%; a cell survival rate of mouse pan T cells with Fab-ZAP rat (saporin), % of control antibody; 300 ng/mL of 39%; a cell survival rate of mouse pan T cells with Fab-ZAP rat (saporin), % of control antibody; 1500 ng/mL of 31%; a cell survival rate of mouse pan T cells with Fab-ZAP rat (saporin), % of control antibody; 7500 ng/mL of 29%.

B1: hMAb1A antibody (antibody, human IgG1, kappa, V domains shown)
VH: EVQLVESGGGLVQPGGSLRLSCAASGFTFNNYYMVWVRQAPGKGLEWVAYISTGGGTTYYRESVKGRFTISRDNSKSTLYLQMNSLRAEDTAVYYCTTSVYFSDGSSHYDGEWFAYWGQGTLVTVSS
VL: DIVMTQSPDSLAVSLGERATINCKASESVSTRMHWYQQKPGQPPKLLIYKASNLASGVPARFSGSGSGTDFTLTISSLQAEDVAVYYCQQSWNGWAFGQGTKVEIKR
notes: Humanized MAb1, human IgG1 / kappa; also called humanized antibody hMAb1A; hMAb1 (in places)
For B1, the values for the binding result with mouse CD25 [3] and in the experiment with cynomolgus monkey CD25 [4] were “no binding (tested: 20 to 0.001 µg/mL)” and “binds”, respectively. This molecule displayed a Kd in [5] of 2.9 nM.

B2: MAb1 antibody (antibody, V domains shown)
VH: EVQLVESGGGLVQPGRSLKLSCAASGFTFNNYYMVWVRQAPTKGLEWVAYISTGGGTTYYRESVKGRFTISRDNAKSTLYLQMDSLRSEDTATYYCTTSVYFSDGSSHYDGEWFAYWGQGTLVTVSS
VL: DTVLTQSPALAVSPGERVTISCKASESVSTRMHWYQQKPGQQPKLLIYKASNLASGVPARFSGSGSGTDFTLTIDPVEADDTATYFCQQSWNGWAFGGGTKLELKR
notes: Rat monoclonal antibody from a hybridoma
As to B2, the binding result with mouse CD25 [6] is given as “no binding (tested: up to 10 µg/mL)”; with cynomolgus monkey CD25 [7], “binds”.

B3: hMAb1B antibody (antibody, human IgG1, kappa, V domains shown)
VH: EVQLVESGGGLVQPGGSLRLSCAASGFTFNNYYMVWVRQAPGKGLEWVAYISTGGGTTYYADSVKGRFTISRDNSKSTLYLQMNSLRAEDTAVYYCTTSVYFSDGSSHYDGEWFAYWGQGTLVTVSS
VL: EIVLTQSPGTLSLSPGERATLSCKASESVSTRMHWYQQKPGQAPRLLIYKASNLASGVPARFSGSGSGTDFTLTISRLEPEDFAVYFCQQSWNGWAFGQGTKVEIKR
notes: Humanized MAb1, human IgG1 / kappa; also called humanized antibody hMAb1B
Turning to B3, the binding result with cynomolgus monkey CD25 [4] is recorded as “binds”. The molecule also registered a dissociation constant (Kd) in [5] of 5.7 nM.

B4: cMAb1_hIgG1LALA antibody (antibody, V domains shown)
VH: EVQLVESGGGLVQPGRSLKLSCAASGFTFNNYYMVWVRQAPTKGLEWVAYISTGGGTTYYRESVKGRFTISRDNAKSTLYLQMDSLRSEDTATYYCTTSVYFSDGSSHYDGEWFAYWGQGTLVTVSS
VL: DTVLTQSPALAVSPGERVTISCKASESVSTRMHWYQQKPGQQPKLLIYKASNLASGVPARFSGSGSGTDFTLTIDPVEADDTATYFCQQSWNGWAFGGGTKLELKR
notes: Chimeric: rat MAb1 variable regions, human IgG1 LALA heavy constant region, human kappa constant region; also called human IgG1LALA chimeric MAb1
Turning to B4, the binding result is given as “no binding (tested: 80 to 0.001 µg/mL)” in the experiment with mouse CD25 [3] and “binds” in the experiment with cynomolgus monkey CD25 [8].

B5: MAb2 antibody (antibody, V domains shown)
VH: QVKLLQSGAALEKPGASVKMSCKASGYTFTDYWVIWVKQSHGKSLEWIGEIYPNSGATNFNAKFKGKATLTVDKSTSTAYMELSRLTSEDSAIYYCTTYDFDYWGQGVMVTVSS
VL: DVVLTQTPPTLSATIGQSVSISCRSSQSLSHTNGNTYLYWLLQRPGQPPQLLIYFVSRLESGVPNRFSGSGSGTDFTLKISGVEAEDLGLYYCVQSTHVPNTFGAGTKLELKR
notes: Rat monoclonal anti-mouse CD25 antibody from a hybridoma
B5: the binding result in the experiment with human CD25 [9] and in the experiment with cynomolgus monkey CD25 [10] was “no binding (tested: up to 10 µg/mL)” throughout.

B6: cMAb2_hIgG1LALA antibody (antibody, V domains shown)
VH: QVKLLQSGAALEKPGASVKMSCKASGYTFTDYWVIWVKQSHGKSLEWIGEIYPNSGATNFNAKFKGKATLTVDKSTSTAYMELSRLTSEDSAIYYCTTYDFDYWGQGVMVTVSS
VL: DVVLTQTPPTLSATIGQSVSISCRSSQSLSHTNGNTYLYWLLQRPGQPPQLLIYFVSRLESGVPNRFSGSGSGTDFTLKISGVEAEDLGLYYCVQSTHVPNTFGAGTKLELKR
notes: 21-239 is used here; also called human IgG1LALA chimeric MAb2
For B6, the binding result in the experiment with human CD25 [11] and with cynomolgus monkey CD25 [12] was “no binding (tested: 80 to 0.001 µg/mL)” each time.

Usually Kd stands for the constant that tells how readily two partners part at equilibrium.

Source of the values: patent publication EP4692351A1, “ANTI-CD25 ANTIBODY AND ANTI-CD25 ANTIBODY-DRUG CONJUGATE” (priority 2023, dated 2024).
